# Test results from article PMC12270679 (2025).
# B1: MBP-Asr1 (natural protein)
# chain: MEECPICLADDQEGEQFGCLNVCGHKFHLNCIREWHKYSINLKCPICRVESTHLEVGEGQHALSINLKMGFMIKNAIDYVGAETTNERNEDDTGEQDQEIEFLSERLRGTLVMDTIKIIQCSICGDTDVSRLSLYCQDCEAIYHETCLRGLACEVGDRNTWQECTDCRSNALLELRMGAISSQLASYDSRNSMIFAGELRDKHSVKTQQMYEQIRNAKHKIQMHVRRALDRYPLPLLRFKDAYKHVNKQVSRKLYRLSDNKYLPDQYDYDSLARTGVHTELLIYCHDE
# Target: Unp-CTD (Saccharomyces cerevisiae, synthetic peptide, N-terminal FAM label, unphosphorylated; consensus RNAPII Rpb1 CTD heptad x3)
# Experiment: FP; unphosphorylated CTD peptide
binder,measurement,value
B1,Kd,4.06 mM
